Data on 19 sequences can be found in the Immune Epitope Database (IEDB).

By Kd is commonly meant a measure of binding affinity in units of concentration.

A value given as a limit tells only on which side of the number the result lay.

Targets include HLA-A*33:01; HLA-A*31:01; HLA-A*11:01; HLA-A*03:01; HLA-A*68:01.
Holding throughout (assay): IEDB peptide-MHC binding, purified MHC/competitive/radioactivity; filed as Kd, often an IC50 or EC50 that approximates it; ≥ and ≤ were set here for values at or beyond the usual limits of such assays
The mark [1] stands for this setting: source organism: Vaccinia virus WR.
Setting [2] is: source organism: SARS coronavirus Tor2.
The mark [3] stands for this setting: source organism: Mammarenavirus juninense.
[4] abbreviates: source organism: Lassa virus Josiah.

With CIFAFIDFSK, the Kd came out at 0.0646 µM with HLA-A*33:01 (setting [1]); 136 nM with HLA-A*31:01 (setting [1]); 9.02 nM with HLA-A*11:01 (setting [1]); 18.4 nM with HLA-A*03:01 (setting [1]); 46.1 nM in the assay with HLA-A*68:01 (setting [1]).
As to ATSTRHPSK, the Kd is at least 77.7 µM with HLA-A*33:01 (setting [2]); 623 nM with HLA-A*31:01 (setting [2]); 9.8 nM in the assay with HLA-A*11:01 (setting [2]); 0.599 nM with HLA-A*03:01 (setting [2]); 275 nM with HLA-A*68:01 (setting [2]).
Consider MVGLLSNSPH, for which the Kd with HLA-A*33:01 (setting [3]) is 4.28 µM; in the assay with HLA-A*31:01 (setting [3]), 2890 nM; in the assay with HLA-A*11:01 (setting [3]), at least 41400 nM; with HLA-A*03:01 (setting [3]), at least 30000 nM; with HLA-A*68:01 (setting [3]) it was 661 nM.
For DQYKDLCHMH, the equilibrium dissociation constant (Kd) with HLA-A*33:01 (setting [4]) is at least 70 µM; in the assay with HLA-A*31:01 (setting [4]), at least 70000 nM; in the assay with HLA-A*11:01 (setting [4]) it was at least 69700 nM; in the assay with HLA-A*03:01 (setting [4]), at least 70000 nM; in the assay with HLA-A*68:01 (setting [4]), at least 70100 nM.
Consider SILSLETVK, for which the Kd in the assay with HLA-A*33:01 (setting [1]) was found to be 18.5 µM; with HLA-A*31:01 (setting [1]) it was 2610 nM; with HLA-A*11:01 (setting [1]), 4.15 nM; with HLA-A*03:01 (setting [1]), 24.9 nM; in the assay with HLA-A*68:01 (setting [1]), 515 nM.
The matching figures for FAEESYTYYY: at least 70 µM, at least 70000 nM, 916 nM, at least 26300 nM and 543 nM.
As for KLDDVEKEK, the Kd with HLA-A*33:01 (setting [1]) is at least 77.7 µM; with HLA-A*31:01 (setting [1]), 4770 nM; with HLA-A*11:01 (setting [1]), 292 nM; in the assay with HLA-A*03:01 (setting [1]), 404 nM; with HLA-A*68:01 (setting [1]) it was at least 59900 nM.
Consider VFGSTMNNK, for which the Kd was at least 43.7 µM with HLA-A*33:01 (setting [2]); 2630 nM in the assay with HLA-A*31:01 (setting [2]); 2510 nM in the assay with HLA-A*11:01 (setting [2]); 4340 nM with HLA-A*03:01 (setting [2]); 4460 nM in the assay with HLA-A*68:01 (setting [2]).
With VIRLLIWAY, the dissociation constant (Kd) stood at 12.4 µM in the assay with HLA-A*33:01 (setting [1]); 1220 nM with HLA-A*31:01 (setting [1]); 1930 nM with HLA-A*11:01 (setting [1]); 12900 nM in the assay with HLA-A*03:01 (setting [1]); 5930 nM in the assay with HLA-A*68:01 (setting [1]).
The matching figures for PLFDFVNEK: 5.52 µM, 1220 nM, 413 nM, 1940 nM and 222 nM.
The matching figures for YLLVKWIRK: 5.2 µM, 285 nM, 84 nM, 7.5 nM and at least 35200 nM.
Regarding GMDYEEYKSK, the equilibrium dissociation constant (Kd) in the assay with HLA-A*33:01 (setting [1]) is at least 36 µM; in the assay with HLA-A*31:01 (setting [1]) it was 1690 nM; with HLA-A*11:01 (setting [1]) it was 249 nM; in the assay with HLA-A*03:01 (setting [1]), 29.7 nM; with HLA-A*68:01 (setting [1]), at least 21100 nM.
In the case of QQWIQFMMSR, the Kd with HLA-A*33:01 (setting [2]) is 1.45 µM; in the assay with HLA-A*31:01 (setting [2]), 127 nM; with HLA-A*11:01 (setting [2]) it was 7800 nM; in the assay with HLA-A*03:01 (setting [2]), 12500 nM; with HLA-A*68:01 (setting [2]), 6640 nM.
Regarding LFHGGEPIK, the dissociation constant Kd with HLA-A*33:01 (setting [1]) is at least 77.7 µM; with HLA-A*31:01 (setting [1]), at least 77900 nM; with HLA-A*11:01 (setting [1]), 766 nM; with HLA-A*03:01 (setting [1]), 719 nM; with HLA-A*68:01 (setting [1]) it was 5110 nM.
The matching figures for IMDKEQLLK: 6.38 µM, 1130 nM, 22 nM, 10.2 nM and 1110 nM.
The matching figures for ASTISWMMK: at least 38.9 µM, 1820 nM, 0.346 nM, 31.5 nM and 588 nM.
Taken in the same sequence, the figures for RFVEELLHR were 0.686 µM, 19.7 nM, 3450 nM, 2180 nM and 227 nM.
PVLKAMHDK: the Kd with HLA-A*33:01 (setting [1]) was at least 77.7 µM; with HLA-A*31:01 (setting [1]) it was at least 67400 nM; with HLA-A*11:01 (setting [1]), 879 nM; in the assay with HLA-A*03:01 (setting [1]) it was 645 nM; with HLA-A*68:01 (setting [1]) it was 2520 nM.
The matching figures for ESKAKQLCY: at least 77.7 µM, at least 77900 nM, at least 77900 nM, at least 78000 nM and 15900 nM.
